Data taken from patent publication US20180346571A1.

Key:
[1] = biological target: mouse PD-L1-CD4TM-GFP expressed on HEK-293 cells (mouse) (UniProt Q9EP73); assay: FACS on HEK-293 cells transfected with mPD-L1-GFP, secondary antibody alone (negative control)
[2] = biological target: human PD-L1 ECD-CD4TM-GFP expressed on HEK-293 / HEK-293T cells (human) (UniProt Q9NZQ7); assay: FACS on HEK-293 cells transfected with hPD-L1-GFP, secondary antibody alone (negative control)
[3] = biological target: cynomolgus PD-L1-CD4TM-GFP expressed on HEK-293 cells (cynomolgus) (UniProt G7PSE7); assay: FACS on HEK-293 cells transfected with cyno PD-L1-GFP, secondary antibody alone (negative control)
[4] = biological target: human PD-L1 ECD-CD4TM-GFP expressed on HEK-293 / HEK-293T cells (human) (UniProt Q9NZQ7); assay: FACS on HEK-293T cells expressing hPD-L1-GFP, control panel headed anti-mFc-PE in the row 'No antibody' (taken as the control without PD-1-Fc of paragraph 289)

Sequence of UniProt Q9NZQ7 (Q9NZQ7 19-238): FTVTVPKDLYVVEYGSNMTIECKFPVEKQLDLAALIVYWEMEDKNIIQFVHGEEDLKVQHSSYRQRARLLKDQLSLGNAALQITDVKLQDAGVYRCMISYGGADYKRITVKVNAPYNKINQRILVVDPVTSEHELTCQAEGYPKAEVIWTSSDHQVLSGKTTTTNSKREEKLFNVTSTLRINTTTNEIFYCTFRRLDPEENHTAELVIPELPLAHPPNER
Sequence of UniProt Q9EP73 (Q9EP73 19-239): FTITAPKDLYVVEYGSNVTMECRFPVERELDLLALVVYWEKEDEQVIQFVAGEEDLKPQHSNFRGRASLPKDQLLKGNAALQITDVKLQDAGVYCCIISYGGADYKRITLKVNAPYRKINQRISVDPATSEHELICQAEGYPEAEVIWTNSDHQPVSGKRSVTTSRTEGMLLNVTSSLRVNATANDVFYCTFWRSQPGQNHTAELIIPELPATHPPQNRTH
Sequence of UniProt G7PSE7 (G7PSE7 entry or part of it limits assumed): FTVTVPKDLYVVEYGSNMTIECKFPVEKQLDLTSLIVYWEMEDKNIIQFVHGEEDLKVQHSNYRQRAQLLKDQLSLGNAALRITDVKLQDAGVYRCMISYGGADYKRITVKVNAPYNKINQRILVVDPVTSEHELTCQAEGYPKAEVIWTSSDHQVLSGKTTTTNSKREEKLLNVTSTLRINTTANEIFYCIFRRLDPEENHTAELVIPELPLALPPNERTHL

Row | MFI [1] | MFI [2] | MFI [3] | MFI [4] | Substance
1 | 3 | 3 | 3 |  | Only anti-hFc Ab (antibody)
2 |  |  |  | 10 | anti-mFc-PE (antibody)
3 |  | 6 |  |  | Only anti-mFc Ab (antibody)
